± gives the uncertainty stated by the source.

This data set in a line: amyloid nucleation score (Sup35N fusion, yeast selection) (log enrichment); library NNK2; higher = more nucleation; inactive = no reads after selection. The procedure, abridged:
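Plasmid inserts were Illumina-sequenced at input and output from psi-negative yeast expressing Sup35N fused to peptides of 20 random codons. The yeast were induced with 100 μM copper sulfate for 24 hours and grown 7 days at 30°C on medium lacking adenine and uracil, and sequences with under 100 input reads were excluded. Nucleation score is the DiMSum log enrichment of output over input reads, centred on the mode score of non-aggregating sequences.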
For the substance LTWFWMHSYSSFRIENHVDD, the amyloid nucleation score worked out at 2.18 ± 0.12. The figure for SSSVDRTVHPLCYGFSLRRD is -0.168 ± 0.28. Take FLYPRYLVVMKHVLAGRCVA: the amyloid nucleation score result is “inactive”. The result for SCIMLIVPMINSAYAVLLWR reads -0.771 ± 0.62. The figure for WRYSRKMDRPFYRAMCYVNI is 1.68 ± 0.1; for LETGNRRHTEYLCYDVWVIL it is 0.394 ± 0.39.

EYYINFVNNTFCVDSLRSLD showed an amyloid nucleation score of 5.068 ± 0.035. On to TASWNWLGIVRAGF, for which the amyloid nucleation score came to 1.08 ± 0.27. The result for FCKVGFALLGVNQDVLYEMS reads -0.714 ± 1; that for KAYLCSFMMCFLL, 6.803 ± 0.056.

With STWPCNQPSYVSV, the amyloid nucleation score was determined as 0.204 ± 0.28. The figure for PGVRISVPVLLAWNCYC is 8.558 ± 0.071; for SCRGDKQERKPIHYVRHIWY it is -0.798 ± 0.24; for TYMRGSLSEIGGTLL it is 1.06 ± 0.19. Take SSYTMEPPHVRA: the amyloid nucleation score is 0.155 ± 1.1. The figure for IFWAYAICCIYGLRGCRGEY is 6.64 ± 0.084; for VKDDTSHPYRGFYYRVIRRN it is 1.08 ± 0.16. The figure for FKFLADVVPWFSSRWSHLMM is -0.867 ± 0.37; for AADSRYGGNGCFRSMLFALI it is 0.817 ± 0.45; for SMLGKRIFYRCSRLMHNF it is -0.175 ± 0.27. The result for SRYGWMNRWKQPVQVVNPGF reads 0.031 ± 0.38; that for FHHSHANSNVSRGIDIFGAV, -0.454 ± 0.32. Take RRLAGSTAEKMYMF: the amyloid nucleation score result is “inactive”. The result for DRAYDVCGRSRRWYQKKLGM reads -0.667 ± 0.49; that for YLNLYLYCVNSSNDSYV, 6.513 ± 0.031. As for QILPWGVSMEKL, the amyloid nucleation score was -0.492 ± 0.41. For DVSNLWFTNFCGFWGKYVVK, the amyloid nucleation score entry was “inactive”.

As to LARCGPKLW, the amyloid nucleation score was 3.43 ± 0.07. The result for PPIRVYNLSSTYPMDMSSQR reads -0.8 ± 0.27; that for WFIGS, “inactive”; that for GSYCQWIYF, 1.99 ± 0.22. In the case of SAIDWDFQTIFLLSEFQYGF, the amyloid nucleation score is -1.44 ± 1.1. LYTMNLHYFLLFEESVS: the amyloid nucleation score is -0.835 ± 0.28. The result for TFEYCSLYVGCNQGNLVITT reads 6.575 ± 0.041; that for VILNYVIYL, 10.08 ± 0.071.

Consider CEVSGYARWLGQHYWSAVRA, for which the amyloid nucleation score was 1.69 ± 0.32. The figure for PVWKVERRNSHLLKDIGNSI is 0.325 ± 0.57. The result for NYSYMSMHTSCLSKTPSSRA reads -1.42 ± 1.1; that for GCVLAQLSSVGSGVLML, 3.14 ± 0.16; that for DIERQAVNRPVGRLGKTEDS, 0.242 ± 0.77. The result for CDVRMRVAGRAR reads 3.19 ± 0.11. As to DNKRWLRIWMKFLKGDMHGL, the amyloid nucleation score is -0.283 ± 1.1. With CTCFGRVRLQKSIWGKRLIH, the amyloid nucleation score was -0.383 ± 0.56. The result for LHVMYQTAMRAFAWNVTDLG reads -0.032 ± 0.8.

In the case of HILICFWRVQVLKSACLYWT, the amyloid nucleation score was determined as 1.74 ± 0.11.

Consider CRSFAVTDLRVYVKF, for which the amyloid nucleation score amounted to 2.12 ± 0.12.

As for VGGRSGE, the amyloid nucleation score is -0.159 ± 0.26. The figure for YFLLVGAARIRRVKLLQ is -0.22 ± 0.62.

Consider NLRHKDGTGLLRSWMSIQRR, for which the amyloid nucleation score turned out to be 0.436 ± 0.62. For KGFRMRAWWRVGVLDCDAGT, the amyloid nucleation score came out at 0.082 ± 1.1. As to NCPPFHRMYLTSIIGSLSDD, the amyloid nucleation score was -0.306 ± 0.49. The result for RALLCGSDVSKRNHGRSFVF reads 0.05 ± 1; that for DAMFFKCRMYRAVGRFFREG, 0.02 ± 0.28.

For the substance YTLRSNTNASMRRHLMQVPR, the amyloid nucleation score is -0.531 ± 1.1. The result for ITVFILDRYFGICV reads “inactive”; that for SSNFRLSLWYSKMM, -0.246 ± 0.36; that for TNIQN, -0.69 ± 0.61. The figure for LYTLVFIKNFISMYLREILT is -1.8 ± 0.48; for TTGNQLKKCVDKCGGRSGGE it is 0.938 ± 0.45; for RLGIFYKVDLSLVGKVPNST it is 2.79 ± 0.17. As for SKLFESLVTCLIKGLHVVNN, the amyloid nucleation score was determined as 0.479 ± 0.74. The entry for YVFLWWLKFCFGYH is “inactive”.

GSRGMVFQMFT yielded an amyloid nucleation score of 0.94 ± 0.48. The result for DNGCELPFLFFMFASTVKWS reads -0.78 ± 1.1; that for GSRDDSTVLVRKSSCRVEGS, 0.665 ± 0.37. Turning to CVMHVRHHYGDI, the amyloid nucleation score result is “inactive”. The result for LRVTGNVGLSFGAKGLARPD reads 3.33 ± 0.12; that for SMRDEVYIRFFMNRILSVRS, -0.803 ± 1. Turning to AWHSRTFVSLSLGRTSVEVL, the amyloid nucleation score is -0.242 ± 0.45.

TSSWIMIRS registered an amyloid nucleation score of 1.52 ± 0.19. The figure for VCHAGTWLQSGRTRYSIVRN is 3.51 ± 0.12. The figure for NRMEYV is 1.02 ± 0.23; for GMIVLRCSRSCWFVQTKADG it is 1.27 ± 0.48.

Take DWFVSGTSDRVVGNSAGGGV: the amyloid nucleation score came to 0.589 ± 0.66. The figure for GCRAVRTWEPIGVAGEYFGS is 6.232 ± 0.037. The result for FTCDSSLYAES reads -0.485 ± 0.41. The figure for IIPRMLDMPLSVWQEIIRFW is 0.45 ± 0.5. Take KERAYRGNQAKKRLKTALFY: the amyloid nucleation score result is “inactive”. The result for GGNLGRPEKALSRRCCVDYL reads “inactive”; that for GNNRAY, -0.117 ± 0.74; that for NWVNQTS, -1.6 ± 0.48. The figure for GLLGKTASTYAVRVWGIGVG is 1.03 ± 0.2; for STPHFH it is -0.146 ± 1; for DEEGRVSPDVARLVAVICGA it is 0.413 ± 0.39. The figure for EYRLFCCWE is 6.04 ± 0.072; for TFQSYRDESFSWSRLVSSQR it is -0.477 ± 0.26.

As for DDWVSGEEFGRSRNLNHFPD, the amyloid nucleation score is -1.56 ± 0.48. The result for RVLKLCRLCHFKYLTSEAGV reads -0.309 ± 0.34; that for VQEERAFKWVR, 0.44 ± 0.42. The entry for HVLHCTYSQSSMEQLFCFNW is “inactive”; for CQDSALALGDVFVPDKGVVR it is 0.36 ± 0.8; for MVRVYSVCDKDHQMYNHFFR it is 0.67 ± 0.44. Consider RMFRFRRHSKHLEKLSSRFL, for which the amyloid nucleation score is -0.222 ± 0.49.

For the substance CSCDGWVCPCSACIC, the amyloid nucleation score stood at 8.708 ± 0.035. The figure for MFCGDSCSTVPCCVCICFLY is 5.02 ± 0.058.

CVREIYYVFCINSPVIAMDC gave an amyloid nucleation score of 6.149 ± 0.038. VYLRMSFYYGKRP returned an amyloid nucleation score of 4.12 ± 0.044. The figure for KYVSCNLLIGWYTLFSFYPF is -0.649 ± 0.4; for SVFSYQYETKVGSQNLLEYI it is -0.751 ± 1.1; for LTDCLLLLFGLLGRFYRNLS it is “inactive”. The figure for INLISSYHFGELTCATSYWR is 4.77 ± 0.09; for KFFMPTYN it is 1.58 ± 0.17. The figure for YVRRVASGAFCMKFRSTIRR is 1.98 ± 0.084; for HYLNIRQDPY it is 2.4 ± 0.21; for NNMINDGNSMV it is 0.026 ± 0.39. Regarding FYLNKDNLWNSNLGGSAHKC, the amyloid nucleation score was -2.38 ± 1.1.

For the substance NRYVFLGHCVPVRGATHFLV, the amyloid nucleation score is 0.173 ± 1.1.

Turning to PNSYAETDWISLCSDSMSWH, the amyloid nucleation score amounted to 0.721 ± 0.74. The figure for FSGKMN is 0.301 ± 0.57; for DVLRLTQTANLLCSSALRSA it is 1.07 ± 0.12; for FQHNVAIKRWRRLADSLYSV it is 0.723 ± 0.57. Regarding LTRCMCPLGDIMRHKEKPEM, the amyloid nucleation score was -1.25 ± 1.1. The figure for FVQSVGNMVSNSGRAGGMPG is 0.444 ± 0.31. As for LRAVWATVIVSVAMSVSCPK, the amyloid nucleation score was determined as 5.07 ± 0.07.

Take YLMVISEQIGDMCTISS: the amyloid nucleation score was -1.36 ± 0.76. The result for TVIIDDTCICFYYIEYMWCE reads “inactive”; that for CFPSILSRFINLRCPGRSSY, “inactive”; that for PGVMHICLCRTHTSRCKCTL, 0.402 ± 0.57. In turn, GSQVLCGLRLPARGFWSYIM displayed an amyloid nucleation score of 0.254 ± 0.3. The result for MLLIRGHILIPGADLTIIPE reads -0.692 ± 0.56; that for SLKRKGLVHTPCIFRVRCLT, 0.554 ± 0.81; that for HYVYFGYECAFGGG, -0.365 ± 0.76.

In turn, TVMCLNLLR had an amyloid nucleation score of 6.454 ± 0.026. The result for AVSVAVLRHLEVRRKVWS reads 1.66 ± 0.15; that for SCSWCMLVPRGGVGVPKG, 0.335 ± 0.22; that for AVFVPNSNALVLTVLT, 0.603 ± 0.51. The figure for DKKLIFRWAITVMIRIPART is 1.65 ± 0.48. The result for SRYLSVIYYHRSNTWLRDRE reads “inactive”.

As for RCNMLDRYPSVGRNPVLMVV, the amyloid nucleation score was 0.063 ± 1.1.

SPCLVLL had an amyloid nucleation score of 0.2 ± 0.28. The figure for RRFLNGFFRVQRLRYRHPFI is -0.005 ± 0.63; for FRVVRFVQTGSTFSIARFIK it is -0.83 ± 0.39; for DFWFSGDFK it is -0.778 ± 0.44. The substance YQNVVCRDIQIGFWNLADSI showed an amyloid nucleation score of 5.824 ± 0.056.

For the substance SFPLSADEFNCSI, the amyloid nucleation score was -0.314 ± 0.55. The result for YVLSSLRICYTMLSM reads “inactive”; that for CASRC, 4.11 ± 0.06; that for VINLDKLIFVLEDNCIVFWE, 6.374 ± 0.023.
